The supplement of paper PMC12855868

B1: library; numbered along this chain (parent)
chain: MAAAGGARLLRAASAVLGGPAGRWLHHAGSRAGSSGLLRNRGPGGSAEASRSLSVSARARSSSEDKITVHFINRDGETLTTKGKVGDSLLDVVVENNLDIDGFGACEGTLACSTCHLIFEDHIYEKLDAITDEENDMLDLAYGLTDRSRLGCQICLTKSMDNMTVRVPETVADARQSIDVGKTS

Variants of: B1
Experiment: scaled log2 fold change in cell abundance, elesclomol vs control (0 = silent mean, 1 = nonsense mean) (scaled log2 ratio); higher = higher viability under elesclomol (loss of FDX1 cuproptosis function)
Settings: glucose 10 mM
[1] = with ABC1 FDX1 KO, elesclomol 5 nM, 14 days
[2] = with HEK293T FDX1 KO, elesclomol 40 nM, 11 days
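Further: variant abundance is its share of total variant reads in each endpoint sample, from next-generation sequencing of the integrated ORF PCR-amplified out of genomic DNA.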

E125S
scaled log2 fold change [1]: 0.239

E125M
scaled log2 fold change [1]: 0.0258

E125R
scaled log2 fold change [1]: 0.109 | scaled log2 fold change [2]: -0.189

E125G
scaled log2 fold change [1]: -0.304 | scaled log2 fold change [2]: -0.096

E125H
scaled log2 fold change [1]: -0.583 | scaled log2 fold change [2]: -0.234

E125N
scaled log2 fold change [1]: -0.0561 | scaled log2 fold change [2]: -0.574

E125K
scaled log2 fold change [1]: 0.48 | scaled log2 fold change [2]: 0.921

E125L
scaled log2 fold change [1]: 0.17 | scaled log2 fold change [2]: 0.357

E125V
scaled log2 fold change [1]: 0.114 | scaled log2 fold change [2]: -0.317

E125Q
scaled log2 fold change [1]: -0.176 | scaled log2 fold change [2]: -0.00485

E125D
scaled log2 fold change [1]: 0.426 | scaled log2 fold change [2]: 0.469

E125T
scaled log2 fold change [1]: -0.0928 | scaled log2 fold change [2]: 0.0298

E125Y
scaled log2 fold change [1]: -0.278 | scaled log2 fold change [2]: -0.0436

E125F
scaled log2 fold change [1]: -0.241 | scaled log2 fold change [2]: 0.00284

E125W
scaled log2 fold change [1]: -0.76 | scaled log2 fold change [2]: -0.135

E125C
scaled log2 fold change [1]: -0.817 | scaled log2 fold change [2]: 0.0813

E125P
scaled log2 fold change [1]: -0.165 | scaled log2 fold change [2]: 0.0466

E125A
scaled log2 fold change [1]: -0.503 | scaled log2 fold change [2]: -0.173

I123W
scaled log2 fold change [1]: -0.0593 | scaled log2 fold change [2]: -0.208

I123Y
scaled log2 fold change [1]: -0.0557 | scaled log2 fold change [2]: -0.336

E133W
scaled log2 fold change [1]: -1.03 | scaled log2 fold change [2]: 0.0959

E133Y
scaled log2 fold change [1]: -0.281 | scaled log2 fold change [2]: 0.898

E133M
scaled log2 fold change [1]: -0.152 | scaled log2 fold change [2]: -0.547

E133G
scaled log2 fold change [1]: -0.151 | scaled log2 fold change [2]: -0.168

E133S
scaled log2 fold change [1]: -1.5

E133V
scaled log2 fold change [1]: 0.153 | scaled log2 fold change [2]: -0.0517

E133T
scaled log2 fold change [1]: 0.0196 | scaled log2 fold change [2]: 0.842

E133F
scaled log2 fold change [1]: -0.18 | scaled log2 fold change [2]: -0.56

E133N
scaled log2 fold change [1]: -0.113 | scaled log2 fold change [2]: -0.0813

E133C
scaled log2 fold change [1]: 0.215 | scaled log2 fold change [2]: -0.346

E133H
scaled log2 fold change [1]: -0.148 | scaled log2 fold change [2]: -0.764

E133D
scaled log2 fold change [1]: 0.319 | scaled log2 fold change [2]: 0.453

E133Q
scaled log2 fold change [1]: -0.239 | scaled log2 fold change [2]: -0.406

E133R
scaled log2 fold change [1]: 0.274 | scaled log2 fold change [2]: 0.00388

E133P
scaled log2 fold change [1]: -0.087 | scaled log2 fold change [2]: 0.243

E133L
scaled log2 fold change [1]: -0.204 | scaled log2 fold change [2]: 0.0198

E133I
scaled log2 fold change [1]: 0.458 | scaled log2 fold change [2]: -0.339

E133A
scaled log2 fold change [1]: -0.216 | scaled log2 fold change [2]: 1.27

E133K
scaled log2 fold change [1]: 0.105 | scaled log2 fold change [2]: 0.342

D128Y
scaled log2 fold change [1]: -0.45 | scaled log2 fold change [2]: 0.0308

D128W
scaled log2 fold change [1]: -0.0394 | scaled log2 fold change [2]: -0.406

D128A
scaled log2 fold change [1]: -0.474 | scaled log2 fold change [2]: -0.104

D128L
scaled log2 fold change [1]: 0.397 | scaled log2 fold change [2]: -0.761

D128G
scaled log2 fold change [1]: 0.0426

D128M
scaled log2 fold change [1]: -0.149 | scaled log2 fold change [2]: -0.00382

D128N
scaled log2 fold change [1]: -0.106 | scaled log2 fold change [2]: -0.13

D128H
scaled log2 fold change [1]: 0.277

D128V
scaled log2 fold change [1]: 0.419 | scaled log2 fold change [2]: -0.465

D128S
scaled log2 fold change [1]: -0.519 | scaled log2 fold change [2]: 1.1

D128Q
scaled log2 fold change [1]: -0.253

D128C
scaled log2 fold change [1]: 0.113 | scaled log2 fold change [2]: 0.174

D128P
scaled log2 fold change [1]: 0.196

D128F
scaled log2 fold change [1]: -0.376 | scaled log2 fold change [2]: 0.338

D128R
scaled log2 fold change [1]: -1.26 | scaled log2 fold change [2]: -0.293

D128I
scaled log2 fold change [1]: -0.0983 | scaled log2 fold change [2]: -0.34

D128K
scaled log2 fold change [1]: -0.0506 | scaled log2 fold change [2]: -0.0961

D128T
scaled log2 fold change [1]: -0.378

D128E
scaled log2 fold change [1]: 0.267 | scaled log2 fold change [2]: 0.301

A129Y
scaled log2 fold change [1]: -0.538

A129G
scaled log2 fold change [1]: 0.16

A129L
scaled log2 fold change [1]: 0.598 | scaled log2 fold change [2]: 1.27

A129M
scaled log2 fold change [1]: -0.0116

A129I
scaled log2 fold change [1]: 0.162 | scaled log2 fold change [2]: -0.508

A129W
scaled log2 fold change [1]: -0.08 | scaled log2 fold change [2]: 1.07

A129F
scaled log2 fold change [1]: 0.044 | scaled log2 fold change [2]: -0.227

A129V
scaled log2 fold change [1]: 0.217 | scaled log2 fold change [2]: 0.196

A129E
scaled log2 fold change [1]: -0.447 | scaled log2 fold change [2]: -0.333

A129H
scaled log2 fold change [1]: -0.541

A129K
scaled log2 fold change [1]: -0.557 | scaled log2 fold change [2]: -0.17

A129P
scaled log2 fold change [1]: 0.272 | scaled log2 fold change [2]: 0.0261

A129C
scaled log2 fold change [1]: -0.31 | scaled log2 fold change [2]: 0.555

A129S
scaled log2 fold change [1]: 0.0531 | scaled log2 fold change [2]: -0.075

A129R
scaled log2 fold change [1]: 0.464 | scaled log2 fold change [2]: -0.0758

A129D
scaled log2 fold change [1]: -0.23 | scaled log2 fold change [2]: 0.439

T131W
scaled log2 fold change [1]: 0.374 | scaled log2 fold change [2]: -0.135

T131C
scaled log2 fold change [1]: -0.2 | scaled log2 fold change [2]: -0.521

T131E
scaled log2 fold change [1]: 0.357 | scaled log2 fold change [2]: -0.395

T131F
scaled log2 fold change [1]: -1.03 | scaled log2 fold change [2]: 0.443

T131P
scaled log2 fold change [1]: 0.137 | scaled log2 fold change [2]: -0.104

T131N
scaled log2 fold change [1]: 0.126 | scaled log2 fold change [2]: -0.681

T131I
scaled log2 fold change [1]: -0.0956 | scaled log2 fold change [2]: 0.347

T131H
scaled log2 fold change [1]: -0.186 | scaled log2 fold change [2]: 0.267

T131M
scaled log2 fold change [1]: 0.154

T131A
scaled log2 fold change [1]: -0.777 | scaled log2 fold change [2]: 0.0649

T131Q
scaled log2 fold change [1]: 0.134 | scaled log2 fold change [2]: 0.928

T131Y
scaled log2 fold change [1]: 0.17 | scaled log2 fold change [2]: -0.668

T131S
scaled log2 fold change [1]: 0.0867

T131R
scaled log2 fold change [1]: -0.448 | scaled log2 fold change [2]: 0.487

T131L
scaled log2 fold change [1]: -0.29 | scaled log2 fold change [2]: 0.562

T131K
scaled log2 fold change [1]: -0.138 | scaled log2 fold change [2]: 2.11

T131D
scaled log2 fold change [1]: 0.127 | scaled log2 fold change [2]: -0.23

T131G
scaled log2 fold change [1]: 0.277

T131V
scaled log2 fold change [1]: -0.238 | scaled log2 fold change [2]: 0.525

L127G
scaled log2 fold change [1]: 0.701 | scaled log2 fold change [2]: -0.0303

L127I
scaled log2 fold change [1]: 0.0723 | scaled log2 fold change [2]: 0.119

L127W
scaled log2 fold change [1]: 0.322 | scaled log2 fold change [2]: 0.0443

L127Y
scaled log2 fold change [1]: 0.24 | scaled log2 fold change [2]: -0.426

L127M
scaled log2 fold change [1]: 0.152 | scaled log2 fold change [2]: 0.302

L127Q
scaled log2 fold change [1]: 0.446 | scaled log2 fold change [2]: 0.00947

L127N
scaled log2 fold change [1]: 0.0507 | scaled log2 fold change [2]: 1.27

L127S
scaled log2 fold change [1]: 0.442 | scaled log2 fold change [2]: 0.345

L127V
scaled log2 fold change [1]: 0.0908 | scaled log2 fold change [2]: 0.603

L127T
scaled log2 fold change [1]: 0.249 | scaled log2 fold change [2]: -0.0113

L127R
scaled log2 fold change [1]: 0.785 | scaled log2 fold change [2]: 0.151

L127F
scaled log2 fold change [1]: -0.388 | scaled log2 fold change [2]: -0.405

L127P
scaled log2 fold change [1]: 0.814 | scaled log2 fold change [2]: 1.12

L127D
scaled log2 fold change [1]: 0.521 | scaled log2 fold change [2]: -0.11

L127K
scaled log2 fold change [1]: 0.682 | scaled log2 fold change [2]: 0.253

L127A
scaled log2 fold change [1]: 0.297 | scaled log2 fold change [2]: 1.31

L127E
scaled log2 fold change [1]: 0.573 | scaled log2 fold change [2]: 0.536

L127H
scaled log2 fold change [1]: 0.038 | scaled log2 fold change [2]: 0.312

D132N
scaled log2 fold change [1]: -0.0637

D132K
scaled log2 fold change [1]: -0.0835 | scaled log2 fold change [2]: 0.943

D132S
scaled log2 fold change [1]: -0.409 | scaled log2 fold change [2]: 1.12

D132T
scaled log2 fold change [1]: -0.0728 | scaled log2 fold change [2]: -0.282

D132A
scaled log2 fold change [1]: -0.35 | scaled log2 fold change [2]: -0.0723

D132Y
scaled log2 fold change [1]: 0.176 | scaled log2 fold change [2]: 1.12

D132L
scaled log2 fold change [1]: 0.217 | scaled log2 fold change [2]: -0.447

D132Q
scaled log2 fold change [1]: 0.014 | scaled log2 fold change [2]: 0.0254

D132F
scaled log2 fold change [1]: -0.0218 | scaled log2 fold change [2]: -0.336

D132I
scaled log2 fold change [1]: -0.789

D132H
scaled log2 fold change [1]: 0.104 | scaled log2 fold change [2]: -1.46
